Measurements from publication PMC4140749, “Identification of a Novel Hypocholesterolemic Protein, Major Royal Jelly Protein 1, Derived from Royal Jelly” (PLoS ONE, 2014).

Biological target: the molecule itself
Assay: SEC; 10-kDa cut-off royal jelly applied to HiLoad 26/60 Superdex 200 p.g.; 150 mM NaCl, 20 mM phosphate buffer pH 7.5; molecular weight calibrated with standard proteins; peak resolved by 15% SDS-PAGE

B1: major royal jelly protein 1 (natural protein, Apis mellifera, UniProt O18330 20-432, looked up)
chain: NILRGESLNKSLPILHEWKFFDYDFGSDERRQDAILSGEYDYKNNYPSDIDQWHDKIFVTMLRYNGVPSSLNVISKKVGDGGPLLQPYPDWSFAKYDDCSGIVSASKLAIDKCDRLWVLDSGLVNNTQPMCSPKLLTFDLTTSQLLKQVEIPHDVAVNATTGKGRLSSLAVQSLDCNTNSDTMVYIADEKGEGLIVYHNSDDSFHRLTSNTFDYDPKFTKMTIDGESYTAQDGISGMALSPMTNNLYYSPVASTSLYYVNTEQFRTSDYQQNDIHYEGVQNILDTQSSAKVVSKSGVLFFGLVGDSALGCWNEHRTLERHNIRTVAQSDETLQMIASMKIKEALPHVPIFDRYINREYILVLSNKMQKMVNNDFNFDDVNFRIMNANVNELILNTRCENPDNDRTPFKISIHL
notes: Major royal jelly protein 1 (MRJP1), Apis mellifera; 55 kDa on SDS-PAGE; Native protein isolated from royal jelly and identified by MALDI-TOF/MS; The introduction calls MRJPs glycoproteins; also called MRJP1; major RJ protein 1; source: purified from royal jelly (10-kDa cut-off RJ, size-exclusion chromatography on Superdex 200)
stoichiometry N: ~5
